Reference: US20250205324A1, “ANTIGENIC PEPTIDES FOR PREVENTION AND TREATMENT OF CANCER” (ENTEROME S.A., priority 2022, published 2025)

target: T1, HLA-A*0201 molecule expressed on human T2 cells (human); experiment: T2 cell HLA-A*0201 binding assay, anti-HLA-A2-PE flow cytometry
T1 construct: surface HLA-A2 detected with anti-HLA-A2-PE (clone REA517); also called HLA-A2
Description: T2 cells (5·10⁴ cells per well) are incubated with decreasing concentrations of peptides from 100 μM to 0.1 μM (4 points: 100 μM, 10 μM, 1 μM, 0.1 μM) in serum-free medium (TexMacs) supplemented with 100 ng/μl of 2 Microglobulin at 37° C. for 16 hours. Cells are then washed two times and marked with the anti-HLA-A2 antibody coupled to PE (clone REA517, Miltenyi).
For each peptide concentration, the geometric mean of the labelling associated with the peptide of interest is subtracted from background noise and reported as a percentage of the geometric mean of the HLA-A*0202 labelling obtained for the reference peptide HIV pol 589-597 at a concentration of 100 μM.

Row | Binder | concentration of peptide that induces 20% of HLA-A2 expression [µM] | in vitro binding affinity (relative affinity, normalized against HIV-pol) | mean relative fluorescence intensity at 0.1 µM peptide | mean relative fluorescence intensity at 1 µM peptide | mean relative fluorescence intensity at 10 µM peptide | mean relative fluorescence intensity at 100 µM peptide
1 | SLLSIQSYV (also called ENT172_B1) [UBE2C-B2] | 0.22 | 0.2 ratio to HIV pol reference peptide | 14.2 % of HIV pol reference peptide | 52 % of HIV pol reference peptide | 92 % of HIV pol reference peptide | –
2 | VMNPELLLL (also called ENT207_B3) [KIF2C-B12] | 0.258 | 1.1 ratio to HIV pol reference peptide | 9.8 % of HIV pol reference peptide | 41.4 % of HIV pol reference peptide | 84.7 % of HIV pol reference peptide | 67.7 % of HIV pol reference peptide
3 | RLQQELMTL [UBE2C-H3] | 1.06 | 1.1 ratio to HIV pol reference peptide | 1.3 % of HIV pol reference peptide | 12.3 % of HIV pol reference peptide | 71.5 % of HIV pol reference peptide | 82.4 % of HIV pol reference peptide
4 | ILLSIQSLL [UBE2C-H2] | 3.27 | 3.5 ratio to HIV pol reference peptide | 2.1 % of HIV pol reference peptide | 8.5 % of HIV pol reference peptide | 32.7 % of HIV pol reference peptide | –
5 | IVWSDVTYV (also called ENT187_B1) [MMP11-B1] | 0.08 | 0.07 ratio to HIV pol reference peptide | 19.8 % of HIV pol reference peptide | 73.3 % of HIV pol reference peptide | 97.1 % of HIV pol reference peptide | 80.2 % of HIV pol reference peptide
6 | ALIFGQLLL (also called ENT205_B1; ENT_205-B1) [TOP2A-B2] | 1.79 | 2.9 ratio to HIV pol reference peptide | 3.4 % of HIV pol reference peptide | 5.5 % of HIV pol reference peptide | 73.6 % of HIV pol reference peptide | 146 % of HIV pol reference peptide
7 | ALIFGQLLT (also called ENT205-H) [TOP2A-H2] | – | – | 5.1 % of HIV pol reference peptide | 0.3 % of HIV pol reference peptide | 3.2 % of HIV pol reference peptide | 0 % of HIV pol reference peptide
8 | ALNPELLAL (also called ENT207_B1; ENT_207-B1) [KIF2C-B1] | – | 1.6 ratio to HIV pol reference peptide | – | – | – | –
9 | KVWSDVTPL [MMP11-H1] | 0.65 | 0.6 ratio to HIV pol reference peptide | – | 24.9 % of HIV pol reference peptide | 72.7 % of HIV pol reference peptide | 82.5 % of HIV pol reference peptide
10 | LILDTVHSL (also called ENT174_B1) [ANKRD30A-B2] | 1.13 | 1.3 ratio to HIV pol reference peptide | 1.7 % of HIV pol reference peptide | 12.4 % of HIV pol reference peptide | 72 % of HIV pol reference peptide | 90.8 % of HIV pol reference peptide
11 | FLYDVRTYL (also called ENT168_B1; ENT_168-B1) [UBE2C-B1] | – | 3.1 ratio to HIV pol reference peptide | – | – | – | –
12 | VLNPELLML (also called ENT207_B4) [KIF2C-B13] | 0.189 | 0.8 ratio to HIV pol reference peptide | 10.5 % of HIV pol reference peptide | 42.1 % of HIV pol reference peptide | 45.3 % of HIV pol reference peptide | 50.3 % of HIV pol reference peptide
13 | SLPDRILDA (also called ENT204-H) [CDC20-H1] | – | 6.3 ratio to HIV pol reference peptide | – | – | – | –
14 | YLQQELMNL (also called ENT178_B1) [UBE2C-B3] | 0.14 | – | – | – | – | –
15 | ALYSEILTV (also called ENT169_B1; ENT_169-B1) [ANKRD30A-B1] | 0.05 | 0.04 ratio to HIV pol reference peptide | 33.3 % of HIV pol reference peptide | 77.2 % of HIV pol reference peptide | 93.7 % of HIV pol reference peptide | 88.2 % of HIV pol reference peptide
16 | SLPDRILTV (also called ENT204_B1; ENT_204-B1) [CDC20-B1] | – | 0.6 ratio to HIV pol reference peptide | – | – | – | –
17 | AVIGIVAAV (also called ENT190_B1) [OR51E2-B1] | 0.7 | 0.8 ratio to HIV pol reference peptide | 3.5 % of HIV pol reference peptide | 25.4 % of HIV pol reference peptide | 59.3 % of HIV pol reference peptide | –
18 | KILDTVHSC [ANKRD30A-H2] | 25.3 | 29.9 ratio to HIV pol reference peptide | 1.2 % of HIV pol reference peptide | 1.8 % of HIV pol reference peptide | 8.7 % of HIV pol reference peptide | 52.3 % of HIV pol reference peptide
19 | TLDQKLFMV (also called ENT180_B1) [ANKRD30A-B3] | 0.14 | 0.2 ratio to HIV pol reference peptide | 18.8 % of HIV pol reference peptide | 67.5 % of HIV pol reference peptide | 120 % of HIV pol reference peptide | 112 % of HIV pol reference peptide
20 | QMNPELLTL (also called ENT207_B2) [KIF2C-B11] | – | 3.9 ratio to HIV pol reference peptide | – | – | – | –
21 | ALYDVRTIL (also called ENT168-H) [UBE2C-H1] | 15 | 8.8 ratio to HIV pol reference peptide | 3.8 % of HIV pol reference peptide | -0.2 % of HIV pol reference peptide | 6.8 % of HIV pol reference peptide | 134 % of HIV pol reference peptide
22 | AQIGIVAVV [OR51E2-H1] | 5.68 | 6.2 ratio to HIV pol reference peptide | 0 % of HIV pol reference peptide | 4 % of HIV pol reference peptide | 32 % of HIV pol reference peptide | –
23 | ALYDVRTILL (also called UBEC2-H11; ENT168-HL) [UBE2C-H11] | 14.9 | 8.7 ratio to HIV pol reference peptide | 4.2 % of HIV pol reference peptide | -2.3 % of HIV pol reference peptide | 8.9 % of HIV pol reference peptide | 135 % of HIV pol reference peptide
24 | YLYDVRTAL (also called ENT168_B2) [UBE2C-B11] | 0.87 | 0.7 ratio to HIV pol reference peptide | 6.6 % of HIV pol reference peptide | 22.2 % of HIV pol reference peptide | 68.4 % of HIV pol reference peptide | 87.5 % of HIV pol reference peptide
25 | AINPELLQL (also called ENT207-H) [KIF2C-H1] | 22.6 | 31.1 ratio to HIV pol reference peptide | 0 % of HIV pol reference peptide | 0.4 % of HIV pol reference peptide | 9.5 % of HIV pol reference peptide | 64.9 % of HIV pol reference peptide
26 | AVYSEILSV (also called ENT169-H) [ANKRD30A-H1] | 0.65 | – | – | – | – | –
